The target of this assay is CD2 (human) (UniProt P06729). Kind of assay: dTomato EVs from cells stably expressing the codon-optimized scFv on Jurkat T cells, flow cytometry. (In general: In flow cytometry, cells or beads pass a laser one at a time.)

The source of these data is patent US20250312479A1.

Sequence of UniProt P06729 (P06729 25-351): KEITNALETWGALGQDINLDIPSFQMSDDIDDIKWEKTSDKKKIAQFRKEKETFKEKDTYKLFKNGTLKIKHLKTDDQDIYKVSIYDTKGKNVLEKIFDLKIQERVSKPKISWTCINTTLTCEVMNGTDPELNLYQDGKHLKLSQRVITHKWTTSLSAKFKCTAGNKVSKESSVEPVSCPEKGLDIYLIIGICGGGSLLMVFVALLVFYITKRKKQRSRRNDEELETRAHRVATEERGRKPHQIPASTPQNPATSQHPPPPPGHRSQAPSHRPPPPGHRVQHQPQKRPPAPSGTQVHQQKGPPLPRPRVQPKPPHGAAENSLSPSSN

B1: anti-CD2 scFv displayed on EVs via the PDGFR transmembrane domain, helical (α-helix) linker (scFv)
scFv: DYKDHDGDYKDHDIDYKDDDDKNIMMTQSPSSLAVSAGEKVTMTCKSSQSVLYSSNQKNYLAWYQQKPGQSPKLLIYWASTRESGVPDRFTGSGSGTDFTLTISSVQPEDLAVYYCHQYLSSHTFGGGTKLEIKRGGGGSGGGGSGGGGSQLQQPGAELVRPGSSVKLSCKASGYTFTRYWIHWVKQRPIQGLEWIGNIDPSDSETHYNQKFKDKATLTVDKSSGTAYMQLSSLTSEDSAVYYCATEDLYYAMEYWGQGTSVTVSSDQSNSEEAKKEEAKKEEAKKSNSAVGQDTQEVIVVPHSLPFKVVVISAILALVVLTIISLIILIMLWQKKPR
In turn, B1 displayed a fold increase of EV binding over non-targeted EVs of more than 100 fold.
